According to paper PMC7946437, “Cardiolipin targets a dynamin-related protein to the nuclear membrane” (eLife, 2021):
Substitutions are numbered along the chain they refer to. Numbers in names are those of the source.

B1: Tetrahymena dynamin-related protein 6 (Drp6), N-terminal histidine-tagged (natural protein, Tetrahymena thermophila, UniProt Q38KF5 1-710, looked up)
chain: MTNTIVPANNFQNIKEVIKVVNKLRDFGIESDKIQLPKIVVIGVQSSGKSSLLEQIVQLDFLPRGTGVVTRCPLEIRLIEVTNQDSDFKPYAYFFEERQKIFHDFELVKKEIQKITNDFAGPGKKIVDKVITLTIYQAQCPTLTLIDLPGMTLNSVGDQKDIERVTQDMTKKYIIEKTTIILCVIPINQDLENSLALNLARSVDENGERTIGVLTMIDIMNPGTNCENVLKNRQIPLLHRYYGMKPRSQKDINENVSVQEAIQREQLYFTSHQIYSMYPEYTGTNALTNKLSTLLDSHIRTFLPSIHKKIKMTLSERIKERQQLGNEFPTEVTQQLYELTNIINTSLNLFKQAMTNYDASEIQNIGKIKVDERVGKSYADFLFDKYLLICKKISEEQVFKVKMKDLIKELGKFRVQVNGFLPFEVFESQIKQKINLYETEAIVILEQLKEHVRKVLNHCIDLFPFPNNKIKKIMQDILQNFVQTEYNFTSSHIKTAFYCYKDCICSKMIDIHETESKLKQNHVYLQNDNQQKKVLYEYISKNKSFMEWTVQEIMIKAENLCNVPITMSDLQNTYTKAEEKVQNTDEVLRYSIIYYKYMDNFRKQISDQIPQCIQSLFINSLCKNLMVKVFQAIQSKEYKEIIEKNLKEDEIIATKRAKVIQSIQKLAKANDRLERLIDQGQNCNHMLSTTYGDEENYIHESLEDSDGIDD
notes: Dynamin-related protein 6 (Drp6) of Tetrahymena thermophila; the text calls the His-tagged protein the full-length protein; pRSETB vector; also called His-drp6; WT; source: E. coli C41(DE3), purified (Ni-NTA agarose); not shown: histidine tag, N-terminal, kept
B2: Drp6-I553M, N-terminal histidine-tagged (natural protein, Tetrahymena thermophila, UniProt Q38KF5 1-710, looked up)
chain: B1 chain with I553M
notes: Dynamin-related protein 6 (Drp6) of Tetrahymena thermophila with I553M, made by site-directed mutagenesis of the His-drp6 construct; pRSETB vector; same limits as His-drp6 are likely (point mutant of that construct); also called His-drp6-I553M; source: E. coli C41(DE3), purified (Ni-NTA agarose); not shown: histidine tag, N-terminal, kept
B3: Drp6-I553A, N-terminal histidine-tagged (natural protein, Tetrahymena thermophila, UniProt Q38KF5 1-710, looked up)
chain: B1 chain with I553A
notes: Dynamin-related protein 6 (Drp6) of Tetrahymena thermophila with I553A, made by site-directed mutagenesis of the His-drp6 construct; pRSETB vector; same limits as His-drp6 are likely (point mutant of that construct); also called His-drp6-I553A; I553A-Drp6; source: E. coli C41(DE3), purified (Ni-NTA agarose); not shown: histidine tag, N-terminal, kept

Key:
Drp6 (His-drp6) = target: T1, Drp6 (His-drp6) (Tetrahymena thermophila, UniProt Q38KF5, I553A); assay: Malachite Green phosphate release (BIOMOL Green); format: biochemical; conditions: 1 mM GTP, 1 µM protein, 25 mM HEPES pH 7.5, 15 mM KCl, 2 mM MgCl2, 37°C
T1 construct: full length aa 1-710, N-terminal His tag (pRSETB), expressed in E. coli C41(DE3), Ni-NTA; higher-order oligomer (at least six monomers)

[1] = substrate: Nc1nc2c(ncn2[C@@H]2O[C@H](COP(=O)(O)OP(=O)(O)OP(=O)(O)O)[C@@H](O)[C@H]2O)c(=O)[nH]1; assay: Malachite Green phosphate release (BIOMOL Green); format: biochemical, Tetrahymena thermophila; conditions: 25 mM HEPES pH 7.5, 15 mM KCl, 2 mM MgCl2, 37°C, 10 min, GTP 50-2000 µM
[2] = target: the molecule itself; assay: SEC; Superdex 200 GL 10/300; 500 µl of protein (0.5 mg/ml) in buffer A, 0.5 ml/min, absorbance at 280 nm; self-assembly into higher order oligomers

T1 sequence (Q38KF5 entry or part of it I553A): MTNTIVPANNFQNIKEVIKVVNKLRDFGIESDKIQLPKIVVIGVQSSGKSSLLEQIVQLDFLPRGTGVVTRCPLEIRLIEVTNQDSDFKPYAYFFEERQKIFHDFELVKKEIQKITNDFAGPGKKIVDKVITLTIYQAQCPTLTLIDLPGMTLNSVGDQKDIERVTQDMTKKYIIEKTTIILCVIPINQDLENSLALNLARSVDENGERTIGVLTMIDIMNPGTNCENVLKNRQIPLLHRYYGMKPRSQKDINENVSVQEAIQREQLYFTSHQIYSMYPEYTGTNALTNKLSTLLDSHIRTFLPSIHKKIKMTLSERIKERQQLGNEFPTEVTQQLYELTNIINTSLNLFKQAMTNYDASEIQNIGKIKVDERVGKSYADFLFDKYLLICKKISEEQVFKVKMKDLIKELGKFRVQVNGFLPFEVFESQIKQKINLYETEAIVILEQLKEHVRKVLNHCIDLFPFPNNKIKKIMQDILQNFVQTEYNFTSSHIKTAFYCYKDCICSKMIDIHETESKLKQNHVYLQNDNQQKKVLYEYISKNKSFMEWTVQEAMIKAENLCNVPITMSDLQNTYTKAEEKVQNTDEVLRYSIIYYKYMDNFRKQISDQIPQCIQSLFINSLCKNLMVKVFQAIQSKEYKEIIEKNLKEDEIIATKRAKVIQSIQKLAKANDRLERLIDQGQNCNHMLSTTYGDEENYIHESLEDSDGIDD

Molecule | Malachite Green phosphate release (BIOMOL Green) (Drp6 (His-drp6)) | Km [1] | stoichiometry N [2] | binding result [2]
Nc1nc2c(ncn2[C@@H]2O[C@H](COP(=O)(O)OP(=O)(O)OP(=O)(O)O)[C@@H](O)[C@H]2O)c(=O)[nH]1 [GTP] | does not affect its activity as assessed by the rate of GTP hydrolysis | – | – | –
B1 | – | 180 µM | ≥ 6 monomers | –
B2 | – | 384 µM | – | binds
B3 | – | – | – | binds
